Results as given in PMC6013482, “Conformational switching of the pseudokinase domain promotes human MLKL tetramerization and cell death by necroptosis” (Nature Communications, 2018).
Changes are numbered by the printed parent chain. Names may count otherwise.

B1: wild-type human MLKL (residues 2–471), recombinant (natural protein, UniProt Q8NB16 2-471, looked up)
chain: ENLKHIITLGQVIHKRCEEMKYCKKQCRRLGHRVLGLIKPLEMLQDQGKRSVPSEKLTTAMNRFKAALEEANGEIEKFSNRSNICRFLTASQDKILFKDVNRKLSDVWKELSLLLQVEQRMPVSPISQGASWAQEDQQDADEDRRAFQMLRRDNEKIEASLRRLEINMKEIKETLRQYLPPKCMQEIPQEQIKEIKKEQLSGSPWILLRENEVSTLYKGEYHRAPVAIKVFKKLQAGSIAIVRQTFNKEIKTMKKFESPNILRIFGICIDETVTPPQFSIVMEYCELGTLRELLDREKDLTLGKRMVLVLGAARGLYRLHHSEAPELHGKIRSSNFLVTQGYQVKLAGFELRKTQTSMSLGTTREKTDRVKSTAYLSPQELEDVFYQYDVKSEIYSFGIVLWEIATGDIPFQGCNSEKIRKLVAVKRQQEPLGEDCPSELREIIDECRAHDPSVRPSVDEILKKLSTFSK
notes: human MLKL, residues 2–471; Elutes as oligomer (tetramer) and monomer peaks; the peaks were pooled except where indicated; Native MS used the oligomer SEC fraction; also called hMLKL; wild-type hMLKL; source: Sf21 insect cells (baculovirus), purified (glutathione agarose, TEV cleavage, Superdex S200); not shown: GST, N-terminal, cleaved
B2: K331N human MLKL (residues 2–471), recombinant (natural protein, UniProt Q8NB16 2-471, looked up)
chain: B1 chain with K330N
notes: human MLKL, residues 2–471, with K331N in the pseudocatalytic loop; also called K331N hMLKL; K331N hMLKL(2–471); source: Sf21 insect cells (baculovirus), purified (glutathione agarose, TEV cleavage, Superdex S200); not shown: GST, N-terminal, cleaved
B3: Streptavidin-binding peptide (SBP)-tagged human RIPK3 kinase domain (residues 2–356) (domain or fragment, UniProt Q9Y572 2-356, looked up)
chain: SCVKLWPSGAPAPLVSIEELENQELVGKGGFGTVFRAQHRKWGYDVAVKIVNSKAISREVKAMASLDNEFVLRLEGVIEKVNWDQDPKPALVTKFMENGSLSGLLQSQCPRPWPLLCRLLKEVVLGMFYLHDQNPVLLHRDLKPSNVLLDPELHVKLADFGLSTFQGGSQSGTGSGEPGGTLGYLAPELFVNVNRKASTASDVYSFGILMWAVLAGREVELPTEPSLVYEAVCNRQNRPSLAELPQAGPETPGLEGLKELMQLCWSSEPKDRPSFQECLPKTDEVFQMVENNMNAAVSTVKDFLSQLRSSNRRFSIPESGQGGTEMDGFRRTIENQHSRNDVMVSEWLNKLNLEE
notes: human RIPK3 kinase domain, residues 2–356; The His6 fusion is TEV protease-cleavable; also called SBP-hRIPK3; hRIPK3 kinase domain; source: Sf21 insect cells (bacmid from pFastBac Htb); not shown: SBP, N-terminal, kept

Experiments:
[1] = target: the molecule itself; experiment: native MS; 250 mM ammonium acetate, nano electrospray; wild type: the oligomer SEC fraction; self-association
[2] = target: the molecule itself; experiment: AUC; sedimentation velocity, 0.25, 0.5 or 1 mg/mL hMLKL, 20 mM HEPES pH 7.5, 200 mM NaCl, 50,000 rpm, 20 °C; at 1 mg/mL also with 300 μM ATP; self-association (tetramer and monomer)
[3] = target: B1; experiment: SPR; SBP-hRIPK3 (2–356) immobilised on a streptavidin chip (Biacore SA); hMLKL flowed over at 1, 0.5, 0.25, 0.125, 0.0625 and 0 μM, 30 μL/min; 20 mM HEPES pH 8.0, 200 mM NaCl; 25 °C; settings: both partners purified

B1
stoichiometry N [1]: 4

B2
stoichiometry N [2]: 4

B3
binding result [3]: binds
